Measurements reported in IntAct's records for PubMed 27013965.

Biological target: lrp6_human LRP6 (UniProt O75581)
Sequence of UniProt O75581 (O75581 whole entry): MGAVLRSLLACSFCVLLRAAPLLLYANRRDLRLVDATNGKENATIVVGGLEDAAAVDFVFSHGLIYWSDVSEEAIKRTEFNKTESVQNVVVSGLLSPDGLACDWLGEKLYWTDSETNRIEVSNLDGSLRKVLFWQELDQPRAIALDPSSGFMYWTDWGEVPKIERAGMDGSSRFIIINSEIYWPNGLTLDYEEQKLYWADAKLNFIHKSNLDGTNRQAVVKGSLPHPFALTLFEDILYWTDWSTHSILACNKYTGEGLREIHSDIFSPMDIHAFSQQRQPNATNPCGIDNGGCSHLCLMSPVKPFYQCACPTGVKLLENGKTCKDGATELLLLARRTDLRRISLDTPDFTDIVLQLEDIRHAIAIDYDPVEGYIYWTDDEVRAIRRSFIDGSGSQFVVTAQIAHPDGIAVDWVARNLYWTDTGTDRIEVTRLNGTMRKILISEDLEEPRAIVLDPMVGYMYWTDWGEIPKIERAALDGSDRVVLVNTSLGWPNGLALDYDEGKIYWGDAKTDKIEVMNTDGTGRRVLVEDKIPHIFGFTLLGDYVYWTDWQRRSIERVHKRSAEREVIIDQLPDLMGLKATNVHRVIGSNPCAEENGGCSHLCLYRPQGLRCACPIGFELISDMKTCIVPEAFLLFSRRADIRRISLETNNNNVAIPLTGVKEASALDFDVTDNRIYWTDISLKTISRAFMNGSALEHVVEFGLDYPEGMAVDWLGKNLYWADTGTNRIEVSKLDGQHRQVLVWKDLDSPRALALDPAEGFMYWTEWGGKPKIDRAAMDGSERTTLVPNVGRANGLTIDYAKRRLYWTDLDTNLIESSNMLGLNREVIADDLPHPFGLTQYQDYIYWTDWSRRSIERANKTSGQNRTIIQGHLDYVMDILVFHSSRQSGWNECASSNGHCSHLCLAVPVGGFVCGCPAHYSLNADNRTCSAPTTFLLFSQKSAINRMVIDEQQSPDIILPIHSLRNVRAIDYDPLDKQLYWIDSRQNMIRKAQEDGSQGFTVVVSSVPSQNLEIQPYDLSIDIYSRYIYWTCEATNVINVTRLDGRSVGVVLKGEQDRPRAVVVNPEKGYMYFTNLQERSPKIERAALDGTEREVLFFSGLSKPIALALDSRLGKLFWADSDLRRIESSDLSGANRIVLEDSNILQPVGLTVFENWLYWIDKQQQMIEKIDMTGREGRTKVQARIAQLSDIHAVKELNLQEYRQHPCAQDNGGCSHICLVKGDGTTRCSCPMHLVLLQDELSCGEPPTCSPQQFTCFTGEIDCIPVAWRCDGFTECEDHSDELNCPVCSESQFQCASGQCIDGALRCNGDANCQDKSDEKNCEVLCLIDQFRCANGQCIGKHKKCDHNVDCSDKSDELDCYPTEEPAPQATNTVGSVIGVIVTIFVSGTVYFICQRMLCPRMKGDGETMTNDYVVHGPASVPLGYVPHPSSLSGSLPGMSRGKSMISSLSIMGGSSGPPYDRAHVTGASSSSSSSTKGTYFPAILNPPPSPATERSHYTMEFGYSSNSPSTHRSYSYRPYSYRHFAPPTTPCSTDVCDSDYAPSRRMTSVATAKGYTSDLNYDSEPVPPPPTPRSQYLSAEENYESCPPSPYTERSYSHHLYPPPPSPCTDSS

Row | effect of a mutation on the interaction | Substance
1 | decreasing interaction strength | Leucine-rich repeat serine/threonine-protein kinase 2 (Homo sapiens), Q5S007 R1398H
2 | decreasing interaction strength | Leucine-rich repeat serine/threonine-protein kinase 2 (Homo sapiens), Q5S007 R1441G
